Measurements published in article PMC9674263 (Proceedings of the National Academy of Sciences of the …, 2022).

Molecular target: the molecule itself
Assay: native gel or EMSA

B1: endogenous PLOD2 of HCC38 cells (enzyme, human (endogenous in HCC38), UniProt O00469 26-737, looked up)
chain: ADSEKPSSIPTDKLLVITVATKESDGFHRFMQSAKYFNYTVKVLGQGEEWRGGDGINSIGGGQKVRLMKEVMEHYADQDDLVVMFTECFDVIFAGGPEEVLKKFQKANHKVVFAADGILWPDKRLADKYPVVHIGKRYLNSGGFIGYAPYVNRIVQQWNLQDNDDDQLFYTKVYIDPLKREAINITLDHKCKIFQTLNGAVDEVVLKFENGKARAKNTFYETLPVAINGNGPTKILLNYFGNYVPNSWTQDNGCTLCEFDTVDLSAVDVHPNVSIGVFIEQPTPFLPRFLDILLTLDYPKEALKLFIHNKEVYHEKDIKVFFDKAKHEIKTIKIVGPEENLSQAEARNMGMDFCRQDEKCDYYFSVDADVVLTNPRTLKILIEQNRKIIAPLVTRHGKLWSNFWGALSPDGYYARSEDYVDIVQGNRVGVWNVPYMANVYLIKGKTLRSEMNERNYFVRDKLDPDMALCRNAREMGVFMYISNRHEFGRLLSTANYNTSHYNNDLWQIFENPVDWKEKYINRDYSKIFTENIVEQPCPDVFWFPIFSEKACDELVEEMEHYGKWSGGKHHDSRISGGYENVPTDDIHMKQVDLENVWLHFIREFIAPVTLKVFAGYYTKGFALLNFVVKYSPERQRSLRPHHDASTFTINIALNNVGEDFQGGGCKFLRYNCSIESPRKGWSFMHPGRLTHLHEGLPVKNGTRYIAVSFIDP
  stoichiometry N: 2
